From patent publication US20070027089A1 (POSCO, published 2007)
Where no end group is shown, it is not given here. The star is where a group is joined. Biotin = O=C1N[C@H]2[C@H](CS[C@H]2CCCCC(=O)*)N1; Dnp = O=[N+]([O-])c1ccc(*)c([N+](=O)[O-])c1; Mca = COc1ccc2c(CC(=O)*)cc(=O)oc2c1

Tests used:
[1] = target: T1, f-Sub M (7-methoxycoumarin-4-acetyl-SEVNLDAEFRK(Dnp)-RR-NH2); assay: cell-based or functional assay
T1 peptide: Mca-SEVNLDAEFRK(Dnp)RR-NH2

[2] = target: T2, biotin-labeled Substrate W; assay: plate assay: HC peptide chemically coupled to plate, bio-Sub W, Str-HRP (FIG. 27)
T2 construct: also called bio-Sub W; N-terminally biotinylated Substrate W
T2 peptide: Biotin-SEVKMDAEFR
Method: (§1) Reacti-BindTM maleic anhydride-activated polystyrene plate (Pierce, Ill., USA) was coated with 50 μl of HC peptide (200 μM in distilled water) by chemical coupling for 3 h at room temperature (RT) and washed three times with phosphate buffered saline (PBS) containing 0.05% tween 20 (PBST). The plate was blocked with blocking buffer (0.5% gelatin in PBS) for 1 h at RT. After discarding blocking buffer, biotinylated BACE1 substrates (200 μM) in blocking buffer was applied on the plate and incubated for 2.5 h at RT. Each well was washed three times with PBST. The bound biotinylated BACE1 substrates were detected by incubation with streptavidin-horseradish peroxidase (Str-HRP, 125 mU/ml in blocking buffer) for 2 h at RT. Color reaction was carried out with 50 μl of 3,3′,5,5′-Tetramethylbenzidine Liquid Substrate (Sigma-Aldrich, Mo., USA). After stopping the reaction by addition of an equal volume of 1 N HCl, absorbance at 450 nm was read in an automated ELISA reader (EL 312e, Bio-Tek Instruments, VT, USA). All assays were carried out in duplicate.

[3] = target: T2, biotin-labeled Substrate W; assay: plate assay: complementary peptide immobilised, biotinylated substrate, streptavidin-HRP
[4] = target: T3, biotin-labeled Substrate M; assay: plate assay: HC peptide chemically coupled to plate, bio-Sub M, Str-HRP, A450 (Table 1)
T3 construct: also called bio-Sub M; N-terminally biotinylated Substrate M
T3 peptide: Biotin-SEVNLDAEFR
Method: as §1

[5] = target: T4, Substrate M (decamer containing the β-secretase cleavage site of Swedish mutant APP), non-labelled; assay: cell-based or functional assay
T4 peptide: SEVNLDAEFR

[6] = target: T5, Sub-ST6Gal1 (non-labelled); assay: cell-based or functional assay
T5 peptide: DYEALTLQAKEFQMPKSQE

[7] = target: T3, biotin-labeled Substrate M; assay: plate assay: HC peptide chemically coupled to plate, bio-Sub M, Str-HRP, A450 (Table 2)
Method: as §1

[8] = target: T6, recombinant human β-secretase (rhBACE1) (human, UniProt P56817 22-457, limits assumed); assay: ELISA, c-Sub M immobilised
T6 construct: Bought

[9] = target: T3, biotin-labeled Substrate M; assay: plate assay: complementary peptide immobilised, biotinylated substrate, streptavidin-HRP

T6 sequence (P56817 22-457 limits assumed): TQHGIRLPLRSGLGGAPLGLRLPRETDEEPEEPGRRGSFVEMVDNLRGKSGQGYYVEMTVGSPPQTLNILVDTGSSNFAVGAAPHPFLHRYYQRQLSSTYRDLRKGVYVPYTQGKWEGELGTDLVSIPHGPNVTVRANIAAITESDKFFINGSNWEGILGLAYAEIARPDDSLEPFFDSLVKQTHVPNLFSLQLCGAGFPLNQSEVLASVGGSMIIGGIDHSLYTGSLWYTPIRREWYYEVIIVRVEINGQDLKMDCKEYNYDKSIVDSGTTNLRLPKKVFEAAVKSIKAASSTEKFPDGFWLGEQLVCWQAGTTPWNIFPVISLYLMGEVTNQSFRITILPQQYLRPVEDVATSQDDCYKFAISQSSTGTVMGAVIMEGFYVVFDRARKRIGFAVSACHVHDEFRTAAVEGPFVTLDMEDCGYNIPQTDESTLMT

B1: c-Sub M ΔC4 (SEFCIQ) (peptide)
peptide: SEFCIQ-NH2
In the case of B1, the “percent inhibition of f-Sub M cleavage by rhBACE1 (peptide 1 mM, f-Sub M 10 µM)” value [1] is reported as > 90%.

B2: c-Sub M ΔN3C1 (CIQIHF) (peptide)
peptide: CIQIHF-NH2
notes: also called c-Sub MΔC1N3; c-Sub ΔN3C1
For B2, the “inhibitory activity relative to c-Sub M ΔN1C1 (FRET, f-Sub M 10 µM)” value [1] was ~0.1 fold and the binding result [2] was “binds”.

B3: c-Sub M ΔC2 (SEFCIQIH) (peptide)
peptide: SEFCIQIH-NH2
With B3 the “percent inhibition of f-Sub M cleavage by rhBACE1 (peptide 1 mM, f-Sub M 10 µM)” value [1] was 44%.

B4: c-Sub W (SEFCIHLHFR) (peptide)
peptide: SEFCIHLHFR-NH2
notes: Hydropathic complementary peptide designed from the antisense strand of Sub W, read 5'->3'
B4: binds [3]; binds [4].

B5: c-Sub M ΔN2C1 (FCIQIHF) (peptide)
peptide: FCIQIHF-NH2
In the case of B5, the “percent of substrate cleavage by β-secretase blocked (HPLC), 25-fold inhibitor” value [5] is reported as ~60%, the “percent of substrate cleavage by β-secretase blocked (HPLC), 25-fold inhibitor” value [6] is reported as 25% and the binding result [2] is reported as “binds”.

B6: c-Sub M ΔC3 (SEFCIQI) (peptide)
peptide: SEFCIQI-NH2
B6 was tested, and the “percent inhibition of f-Sub M cleavage by rhBACE1 (peptide 1 mM, f-Sub M 10 µM)” value [1] was > 90%.

B7: c-Sub M ΔC1 (SEFCIQIHF) (peptide)
peptide: SEFCIQIHF-NH2
notes: also called c-SubM CΔ1
With B7 the binding result [7] was “binds” and the “percent inhibition of f-Sub M cleavage by rhBACE1 (peptide 1 mM, f-Sub M 10 µM)” value [1] was 90%.

B8: c-Sub M ΔN1C1 (EFCIQIHF) (peptide)
peptide: EFCIQIHF-NH2
notes: also called one amino acid deletion from N-terminal of c-Sub M ΔC1
B8 was tested, and the “percent inhibition of substrate cleavage by rhBACE1 (HPLC), inhibitor/substrate ratio 20” value [5] was 100%, the “percent inhibition of substrate cleavage by rhBACE1 (HPLC), inhibitor/substrate ratio up to 10” value [5] was 60% and the “IC50 of inhibition of f-Sub M (10 µM) cleavage by rhBACE1 (FRET)” value [1] was 15 µM. The “percent inhibition of substrate cleavage by rhBACE1 (HPLC), inhibitor/substrate ratio 20” value [6] was 40%, the “percent inhibition of substrate cleavage by rhBACE1 (HPLC), inhibitor/substrate ratio up to 10” value [6] was ~10% and the “fold binding to Sub W relative to c-Sub W” value [2] was 2.5 fold.

B9: c-Sub M (SEFCIQIHFR) (peptide)
peptide: SEFCIQIHFR-NH2
notes: Hydropathic complementary peptide designed from the antisense strand of Sub M, read 5'->3'; also called HC peptide c-Sub M
B9 was tested, and the binding result [8] was “no binding”, the binding result [9] was “binds” and the “percent inhibition of f-Sub M cleavage by rhBACE1 (FRET), peptide 100 fold over substrate” value [1] was ~50%. For the same binder, the “percent inhibition of f-Sub M cleavage by rhBACE1 (peptide 1 mM, f-Sub M 10 µM)” value [1] was 45% and the “fold binding to Sub W relative to c-Sub W” value [2] was 4 fold.

B10: c-Sub M ΔC5 (SEFCI) (peptide)
peptide: SEFCI-NH2
With B10 the “percent inhibition of f-Sub M cleavage by rhBACE1 (peptide 1 mM, f-Sub M 10 µM)” value [1] was > 90%.

B11: Sub W-c (RLHFYLRLKA) (peptide)
peptide: RLHFYLRLKA-NH2
notes: Complementary peptide of Sub W read 3'->5'
B11: binds [4].
